One molecule from patent US20220168434A1, “APPLICATION OF TRANSTHYRETIN IN ENTERING EYE AND PREPARING DROP” (YIZHOU (SHANGHAI) BIOLOGICAL MEDICINE CO, LTD., priority 2019, published 2022) can be followed below.

A short description of series [1]: Protein content in vitreous body during two weeks of eye dropping (ELISA, anti-His tag antibody). The following applies: SD rats; protein not fused with TTR. It counts as in vivo, SD rats (Rattus norregicus). As for the experimental part: (§1) The purified TTR protein (at a concentration of 4 μmol/L) prepared in Example 1 after removal of endotoxin and bacteria was subject to treating healthy SD rats (Rattus norregicus) (6 weeks old) and New Zealand big-eared rabbits (Oryctolagus cuniculus) (2 months old, about 2.5 kg) by means of eye dropping, the left eye was the sample eye dropped with the protein, and the right eye was the blank control eye dropped with saline. The protein was administered 1-3 times per day at a dosage of 0.4-0.8 nmol. Two weeks later, the eyeball was removed and separated to obtain the vitreous body sample. It was preliminarily verified by western-blot method (FIG. 7A) that TTR can enter the vitreous cavity from the ocular surface.
(§2) The purified TTR-GFP protein (at a concentration of 4 μmol/L) prepared in Example 2 after removal of endotoxin and bacteria was subject to treating healthy SD rats (Rattus norregicus) (6 weeks old) and New Zealand big-eared rabbits (Oryctolagus cuniculus) (2 months old, about 2.5 kg) by means of eye dropping, the left eye was the sample eye dropped with the protein, and the right eye was the blank control eye dropped with saline. The protein was administered 1-3 times per day at a dosage of 0.4-0.8 nmol. […] The content of TTR-GFP in the vitreous body sample was determined by ELISA with the anti-His tag antibody as the primary antibody (Table 10 and 11). […]

Assay in series [2]: as above
Type of series: in vivo, New Zealand big-eared rabbits (Oryctolagus cuniculus). Conditions: New Zealand big-ear rabbits; protein not fused with TTR. Here is the method: as §1, §2

B1: Ovalbumin: Ovalbumin protein (UniProt Accession No.: P01012) not fused with TTR (protein, UniProt P01012 2-386, looked up)
Ovalbumin: GSIGAASMEFCFDVFKELKVHHANENIFYCPIAIMSALAMVYLGAKDSTRTQINKVVRFDKLPGFGDSIEAQCGTSVNVHSSLRDILNQITKPNDVYSFSLASRLYAEERYPILPEYLQCVKELYRGGLEPINFQTAADQARELINSWVESQTNGIIRNVLQPSSVDSQTAMVLVNAIVFKGLWEKAFKDEDTQAMPFRVTEQESKPVQMMYQIGLFRVASMASEKMKILELPFASGTMSMLVLLPDEVSGLEQLESIINFEKLTEWTSSNVMEERKIKVYLPRMKMEEKYNLTSVLMAMGITDVFSSSANLSGISSAESLKISQAVHAAHAEINEAGREVVGSAEAGVDAASVSEEFRADHPFLFCIKHIATNAVLFFGRCVSP
With B1, the “entering the vitreous body after eye dropping (in words)” value in series [1] and in series [2] was “did not enter” in each case.
